Several values for one entry are separate records, joined by “and”; a condition that tells them apart may be missing. Equal values may be shown once.
T1: B7H3 on B7H3-positive human tumour cells (A498, MCF-7, Caki-2, 786-0) (human, UniProt Q5ZPR3 29-534)
T1 sequence (looked up): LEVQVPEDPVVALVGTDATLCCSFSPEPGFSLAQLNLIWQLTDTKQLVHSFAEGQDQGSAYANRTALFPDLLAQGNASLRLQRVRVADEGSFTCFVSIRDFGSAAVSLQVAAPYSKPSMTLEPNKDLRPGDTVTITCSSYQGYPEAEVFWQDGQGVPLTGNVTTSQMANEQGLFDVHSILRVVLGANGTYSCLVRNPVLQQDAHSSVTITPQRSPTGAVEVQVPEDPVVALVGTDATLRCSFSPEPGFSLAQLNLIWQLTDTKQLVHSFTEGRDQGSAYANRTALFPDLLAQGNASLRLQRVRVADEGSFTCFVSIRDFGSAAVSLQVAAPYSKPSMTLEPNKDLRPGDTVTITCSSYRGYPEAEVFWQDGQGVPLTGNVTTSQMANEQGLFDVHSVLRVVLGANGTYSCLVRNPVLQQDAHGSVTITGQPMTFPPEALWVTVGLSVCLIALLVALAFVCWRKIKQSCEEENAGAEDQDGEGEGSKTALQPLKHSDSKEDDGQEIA


What follows are binders tested against T1, B7H3 on B7H3-positive human tumour … (assay: cell-based or functional assay).

Binder	IC50 [M] CTG, A498 cells (B7H3-positive)	IC50 [M] CTG, MCF-7 cells (B7H3-positive)	IC50 [M] CTG, Caki-2 cells (B7H3-positive)
Example 173L1: anti-B7H3 AK1A (TPP-3803) coupled with Intermediate F173 (antibody, human IgG1, kappa, V domains shown, KSP inhibitor-linker (Intermediate F173) on cysteine residues of the partially reduced antibody, sites not given; drug/mAb ratio 3.4) VH: QVKLQQSGAELVKPGASVKLSCKASGYTFTNYDINWVRQRPEQGLEWIGWIFPGDGSTQYNEKFKGKATLTTDTSSSTAYMQLSRLTSEDSAVYFCARQTTATWFAYWGQGTTVTVSS VL: DIELTQSPTTLSVTPGDRVSLSCRASQSISDYLHWYQQKSHESPRLLIKYASQSISGIPSRFSGSGSGSDFTLSINSVEPEDVGVYYCQNGHSFPLTFGAGTKLELKR	6e-07 M	4.98e-09 M	–
Example 240L1: anti-B7H3 AK1A (TPP-3803) coupled with Intermediate F240 (antibody, human IgG1, kappa, V domains shown, KSP inhibitor-linker (Intermediate F240) on cysteine residues of the partially reduced antibody, sites not given; drug/mAb ratio 2.7) VH: QVKLQQSGAELVKPGASVKLSCKASGYTFTNYDINWVRQRPEQGLEWIGWIFPGDGSTQYNEKFKGKATLTTDTSSSTAYMQLSRLTSEDSAVYFCARQTTATWFAYWGQGTTVTVSS VL: DIELTQSPTTLSVTPGDRVSLSCRASQSISDYLHWYQQKSHESPRLLIKYASQSISGIPSRFSGSGSGSDFTLSINSVEPEDVGVYYCQNGHSFPLTFGAGTKLELKR	2.35e-09 M	7.25e-10 M	–
Example 257L2: anti-B7H3 AK1B (TPP-5706) coupled with Intermediate F257 (antibody, human IgG1, kappa, V domains shown, KSP inhibitor-linker (Intermediate F257) on cysteine residues of the partially reduced antibody, sites not given; drug/mAb ratio 4.5) VH: QVQLQQPGAELVKPGASVKMSCKASGYTFTIYNVHWIKQTPGQGLEWMGTIFPGNGDTSYNQKFKDKATLTTDKSSKTAYMQLNSLTSEDSAVYYCARWDDGNVGFAHWGQGTLVTVSA VL: DIQMTQSPASLSASVGETVTITCRASENINNYLTWFQQKQGKSPQLLVYHAKTLAEGVPSRFSGSGSGTQFSLKINSLQPEDFGSYYCQHHYGTPPTFGGGTKLEIKR	1.16e-10 M and 1.37e-10 M	7.37e-11 M and 8.63e-11 M	1.5e-11 M and < 3e-11 M
Example 270L1: anti-B7H3 AK1A (TPP-3803) coupled with Intermediate F270 (antibody, human IgG1, kappa, V domains shown, KSP inhibitor-linker (Intermediate F270) on cysteine residues of the partially reduced antibody, sites not given; drug/mAb ratio 2.8) VH: QVKLQQSGAELVKPGASVKLSCKASGYTFTNYDINWVRQRPEQGLEWIGWIFPGDGSTQYNEKFKGKATLTTDTSSSTAYMQLSRLTSEDSAVYFCARQTTATWFAYWGQGTTVTVSS VL: DIELTQSPTTLSVTPGDRVSLSCRASQSISDYLHWYQQKSHESPRLLIKYASQSISGIPSRFSGSGSGSDFTLSINSVEPEDVGVYYCQNGHSFPLTFGAGTKLELKR	6e-07 M	7e-08 M	–
Example 194: anti-B7H3 AK1A (TPP-3803) coupled with Intermediate F194 (antibody, human IgG1, kappa, V domains shown, KSP inhibitor-linker (Intermediate F194) on lysine residues, sites not given; drug/mAb ratio 2.4) VH: QVKLQQSGAELVKPGASVKLSCKASGYTFTNYDINWVRQRPEQGLEWIGWIFPGDGSTQYNEKFKGKATLTTDTSSSTAYMQLSRLTSEDSAVYFCARQTTATWFAYWGQGTTVTVSS VL: DIELTQSPTTLSVTPGDRVSLSCRASQSISDYLHWYQQKSHESPRLLIKYASQSISGIPSRFSGSGSGSDFTLSINSVEPEDVGVYYCQNGHSFPLTFGAGTKLELKR	–	6.43e-10 M	–
Example 257L1: anti-B7H3 AK1A (TPP-3803) coupled with Intermediate F257 (antibody, human IgG1, kappa, V domains shown, KSP inhibitor-linker (Intermediate F257) on cysteine residues of the partially reduced antibody, sites not given; drug/mAb ratio 2.4) VH: QVKLQQSGAELVKPGASVKLSCKASGYTFTNYDINWVRQRPEQGLEWIGWIFPGDGSTQYNEKFKGKATLTTDTSSSTAYMQLSRLTSEDSAVYFCARQTTATWFAYWGQGTTVTVSS VL: DIELTQSPTTLSVTPGDRVSLSCRASQSISDYLHWYQQKSHESPRLLIKYASQSISGIPSRFSGSGSGSDFTLSINSVEPEDVGVYYCQNGHSFPLTFGAGTKLELKR	–	4.49e-10 M	–
Example 259L1: anti-B7H3 AK1A (TPP-3803) coupled with Intermediate F259 (antibody, human IgG1, kappa, V domains shown, KSP inhibitor-linker (Intermediate F259) on cysteine residues of the partially reduced antibody, sites not given; drug/mAb ratio 3.0) VH: QVKLQQSGAELVKPGASVKLSCKASGYTFTNYDINWVRQRPEQGLEWIGWIFPGDGSTQYNEKFKGKATLTTDTSSSTAYMQLSRLTSEDSAVYFCARQTTATWFAYWGQGTTVTVSS VL: DIELTQSPTTLSVTPGDRVSLSCRASQSISDYLHWYQQKSHESPRLLIKYASQSISGIPSRFSGSGSGSDFTLSINSVEPEDVGVYYCQNGHSFPLTFGAGTKLELKR	–	4.57e-09 M	–
Example 284L2: anti-B7H3 AK1B (TPP-5706) coupled with Intermediate F284 (antibody, human IgG1, kappa, V domains shown, KSP inhibitor-linker (Intermediate F284) on cysteine residues of the partially reduced antibody, sites not given; drug/mAb ratio 3.0) VH: QVQLQQPGAELVKPGASVKMSCKASGYTFTIYNVHWIKQTPGQGLEWMGTIFPGNGDTSYNQKFKDKATLTTDKSSKTAYMQLNSLTSEDSAVYYCARWDDGNVGFAHWGQGTLVTVSA VL: DIQMTQSPASLSASVGETVTITCRASENINNYLTWFQQKQGKSPQLLVYHAKTLAEGVPSRFSGSGSGTQFSLKINSLQPEDFGSYYCQHHYGTPPTFGGGTKLEIKR	–	7.02e-10 M	–
Example 274L1: anti-B7H3 AK1A (TPP-3803) coupled with Intermediate F274 (antibody, human IgG1, kappa, V domains shown, KSP inhibitor-linker (Intermediate F274) on cysteine residues of the partially reduced antibody, sites not given; drug/mAb ratio 2.9) VH: QVKLQQSGAELVKPGASVKLSCKASGYTFTNYDINWVRQRPEQGLEWIGWIFPGDGSTQYNEKFKGKATLTTDTSSSTAYMQLSRLTSEDSAVYFCARQTTATWFAYWGQGTTVTVSS VL: DIELTQSPTTLSVTPGDRVSLSCRASQSISDYLHWYQQKSHESPRLLIKYASQSISGIPSRFSGSGSGSDFTLSINSVEPEDVGVYYCQNGHSFPLTFGAGTKLELKR	–	1.86e-09 M	–
Example 297L1 (Isomer 1): anti-B7H3 AK1A (TPP-3803) coupled with Intermediate F297 (antibody, human IgG1, kappa, V domains shown, KSP inhibitor-linker (Intermediate F297) on cysteine residues of the partially reduced antibody, sites not given; drug/mAb ratio 2.4) VH: QVKLQQSGAELVKPGASVKLSCKASGYTFTNYDINWVRQRPEQGLEWIGWIFPGDGSTQYNEKFKGKATLTTDTSSSTAYMQLSRLTSEDSAVYFCARQTTATWFAYWGQGTTVTVSS VL: DIELTQSPTTLSVTPGDRVSLSCRASQSISDYLHWYQQKSHESPRLLIKYASQSISGIPSRFSGSGSGSDFTLSINSVEPEDVGVYYCQNGHSFPLTFGAGTKLELKR	–	8.93e-09 M	–
Example 297L2 (Isomer 1): anti-B7H3 AK1B (TPP-5706) coupled with Intermediate F297 (antibody, human IgG1, kappa, V domains shown, KSP inhibitor-linker (Intermediate F297) on cysteine residues of the partially reduced antibody, sites not given; drug/mAb ratio 3.1) VH: QVQLQQPGAELVKPGASVKMSCKASGYTFTIYNVHWIKQTPGQGLEWMGTIFPGNGDTSYNQKFKDKATLTTDKSSKTAYMQLNSLTSEDSAVYYCARWDDGNVGFAHWGQGTLVTVSA VL: DIQMTQSPASLSASVGETVTITCRASENINNYLTWFQQKQGKSPQLLVYHAKTLAEGVPSRFSGSGSGTQFSLKINSLQPEDFGSYYCQHHYGTPPTFGGGTKLEIKR	> 3e-07 M	7.56e-10 M	> 3e-07 M
Example 240L2: anti-B7H3 AK1B (TPP-5706) coupled with Intermediate F240 (antibody, human IgG1, kappa, V domains shown, KSP inhibitor-linker (Intermediate F240) on cysteine residues of the partially reduced antibody, sites not given; drug/mAb ratio 3.5) VH: QVQLQQPGAELVKPGASVKMSCKASGYTFTIYNVHWIKQTPGQGLEWMGTIFPGNGDTSYNQKFKDKATLTTDKSSKTAYMQLNSLTSEDSAVYYCARWDDGNVGFAHWGQGTLVTVSA VL: DIQMTQSPASLSASVGETVTITCRASENINNYLTWFQQKQGKSPQLLVYHAKTLAEGVPSRFSGSGSGTQFSLKINSLQPEDFGSYYCQHHYGTPPTFGGGTKLEIKR	7.49e-10 M	1.58e-10 M	> 3e-07 M
Example 194L2: anti-B7H3 AK1B (TPP-5706) coupled with Intermediate F194 (antibody, human IgG1, kappa, V domains shown, KSP inhibitor-linker (Intermediate F194) on lysine residues, sites not given; drug/mAb ratio 2.9) VH: QVQLQQPGAELVKPGASVKMSCKASGYTFTIYNVHWIKQTPGQGLEWMGTIFPGNGDTSYNQKFKDKATLTTDKSSKTAYMQLNSLTSEDSAVYYCARWDDGNVGFAHWGQGTLVTVSA VL: DIQMTQSPASLSASVGETVTITCRASENINNYLTWFQQKQGKSPQLLVYHAKTLAEGVPSRFSGSGSGTQFSLKINSLQPEDFGSYYCQHHYGTPPTFGGGTKLEIKR	3.57e-10 M	2.08e-10 M	2.75e-10 M
Example 275L2: anti-B7H3 AK1B (TPP-5706) coupled with Intermediate F275 (antibody, human IgG1, kappa, V domains shown, KSP inhibitor-linker (Intermediate F275) on cysteine residues of the partially reduced antibody, sites not given; drug/mAb ratio 3.8) VH: QVQLQQPGAELVKPGASVKMSCKASGYTFTIYNVHWIKQTPGQGLEWMGTIFPGNGDTSYNQKFKDKATLTTDKSSKTAYMQLNSLTSEDSAVYYCARWDDGNVGFAHWGQGTLVTVSA VL: DIQMTQSPASLSASVGETVTITCRASENINNYLTWFQQKQGKSPQLLVYHAKTLAEGVPSRFSGSGSGTQFSLKINSLQPEDFGSYYCQHHYGTPPTFGGGTKLEIKR	> 3e-07 M	9.15e-11 M	> 3e-07 M
Example 296L2: anti-B7H3 AK1B (TPP-5706) coupled with Intermediate F296 (antibody, human IgG1, kappa, V domains shown, KSP inhibitor-linker (Intermediate F296) on cysteine residues of the partially reduced antibody, sites not given; drug/mAb ratio 3.2) VH: QVQLQQPGAELVKPGASVKMSCKASGYTFTIYNVHWIKQTPGQGLEWMGTIFPGNGDTSYNQKFKDKATLTTDKSSKTAYMQLNSLTSEDSAVYYCARWDDGNVGFAHWGQGTLVTVSA VL: DIQMTQSPASLSASVGETVTITCRASENINNYLTWFQQKQGKSPQLLVYHAKTLAEGVPSRFSGSGSGTQFSLKINSLQPEDFGSYYCQHHYGTPPTFGGGTKLEIKR	6.22e-10 M	1.63e-10 M	> 3e-07 M
Example 281L2: anti-B7H3 AK1B (TPP-5706) coupled with Intermediate F281 (antibody, human IgG1, kappa, V domains shown, KSP inhibitor-linker (Intermediate F281) on cysteine residues of the partially reduced antibody, sites not given; drug/mAb ratio 2.4) VH: QVQLQQPGAELVKPGASVKMSCKASGYTFTIYNVHWIKQTPGQGLEWMGTIFPGNGDTSYNQKFKDKATLTTDKSSKTAYMQLNSLTSEDSAVYYCARWDDGNVGFAHWGQGTLVTVSA VL: DIQMTQSPASLSASVGETVTITCRASENINNYLTWFQQKQGKSPQLLVYHAKTLAEGVPSRFSGSGSGTQFSLKINSLQPEDFGSYYCQHHYGTPPTFGGGTKLEIKR	1.39e-08 M	3.42e-08 M	5.26e-09 M
Example 208L2: anti-B7H3 AK1B (TPP-5706) coupled with Intermediate F104 (stirred at pH 8 overnight) (antibody, human IgG1, kappa, V domains shown, KSP inhibitor-linker (Intermediate F104) on cysteine residues of the partially reduced antibody, sites not given; drug/mAb ratio 2.9) VH: QVQLQQPGAELVKPGASVKMSCKASGYTFTIYNVHWIKQTPGQGLEWMGTIFPGNGDTSYNQKFKDKATLTTDKSSKTAYMQLNSLTSEDSAVYYCARWDDGNVGFAHWGQGTLVTVSA VL: DIQMTQSPASLSASVGETVTITCRASENINNYLTWFQQKQGKSPQLLVYHAKTLAEGVPSRFSGSGSGTQFSLKINSLQPEDFGSYYCQHHYGTPPTFGGGTKLEIKR	–	2.42e-10 M	5.99e-09 M

— patent US20180185510A1, “ANTIBODY DRUG CONJUGATES OF KINESIN SPINDEL PROTEIN (KSP) INHIBITORS WITH ANTI-B7H3-ANTIBODIES” (BAYER PHARMA AKTIENGESELLSCHAFT, priority 2015, published 2018)
